The source of these data is patent US20170326229A1.

What all share (experiment): ELISA, gp120 on plate
The target of test [1] is CH505 Env w004.54 gp120 (HIV-1).
The target of test [2] is CH505 Env w020.11 gp120 (HIV-1).
Test [3] has as its target CH505 Env w020.15 gp120 (HIV-1).
Test [4] has as its target CH505 Env w020.25 gp120 (HIV-1).
Test [5] addresses CH505 Env w030.13 gp120 (HIV-1).
In test [6] the target is CH505 Env w078.15 gp120 (HIV-1).
For test [7], the target named is CH505 transmitted/founder (TF) Env gp120 (HIV-1).
In test [8] the target is CH505 Env w030.17 gp120 (HIV-1).
Test [9] deals with CH505 Env w030.20 gp120 (HIV-1).
Test [10] has as its target CH505 Env w030.21 gp120 (HIV-1).
Test [11] deals with CH505 Env w030.36 gp120 (HIV-1).
Test [12] has as its target CH505 Env w053.15 gp120 (HIV-1).
For test [13], the target named is CH505 Env w053.22 gp120 (HIV-1).
In test [14] the target is CH505 Env w053.29 gp120 (HIV-1).
Test [15] deals with CH505 Env w053.31 gp120 (HIV-1).
The target in test [16] is CH505 Env w078.17 gp120 (HIV-1).
The target in test [17] is CH505 Env w078.33 gp120 (HIV-1).
Test [18] deals with CH505 Env w078.6 gp120 (HIV-1).
For test [19], the target named is CH505 Env w078.9 gp120 (HIV-1).
In test [20] the target is CH505 Env w100.A13 gp120 (HIV-1).
The target of test [21] is CH505 Env w100.B2 gp120 (HIV-1).
Test [22] has as its target CH505 Env w100.B4 gp120 (HIV-1).
In test [23] the target is CH505 Env w136.B10 gp120 (HIV-1).
Test [24] deals with CH505 Env w136.B2 gp120 (HIV-1).
Test [25] concerns the target CH505 Env w136.B23 gp120 (HIV-1).
Test [26] has as its target CH505 Env w136.B5 gp120 (HIV-1).
The target of test [27] is CH505 Env w160.T4 gp120 (HIV-1).

Regarding “CH103 lineage intermediate ancestor IA6 (antibody)”, the log-transformed AUC was determined as 2.9 log AUC in test [1]; 0.8 log AUC in test [2]; 7.8 log AUC in test [3]; 6 log AUC in test [4]; 6.5 log AUC in test [5]; 1 log AUC in test [6]. In test [7], this substance gave a log-transformed AUC of 9.1 log AUC.

Consider “CH105 (CH103 lineage monoclonal antibody)”, for which the log-transformed AUC in [1] turned out to be 8.3 log AUC; in [2], 3.6 log AUC; in test [3], 10.8 log AUC; in test [4], 8.2 log AUC; in test [5], 10.5 log AUC; in test [8], 6.7 log AUC. For the same substance, the log-transformed AUC was 7.1 log AUC in [9]; 10.6 log AUC in test [10]; 7.5 log AUC in test [11]; 9.4 log AUC in test [12]; 9 log AUC in test [13]; 8.5 log AUC in [14]. The log-transformed AUC was determined as 13.5 log AUC in [15]; 10.1 log AUC in [6]; 9.5 log AUC in test [16]; 8.9 log AUC in [17]; 3.8 log AUC in test [18]; 6.6 log AUC in test [19]. Also, the log-transformed AUC was 11.4 log AUC in [20]; 7.5 log AUC in [21]; 11.9 log AUC in [22]; 8.5 log AUC in test [23]; 12.4 log AUC in test [24]; 13.7 log AUC in [25]. The log-transformed AUC amounted to 10.5 log AUC in test [26], 12.2 log AUC in test [27] and 11.2 log AUC in [7].

On to “CH103 lineage intermediate ancestor IA3 (antibody)”, for which the log-transformed AUC worked out at 5.1 log AUC in [1]; 0.8 log AUC in test [2]; 10.2 log AUC in test [3]; 8.6 log AUC in test [4]; 9 log AUC in [5]; 1.1 log AUC in [13]. For the same substance, the log-transformed AUC amounted to 3 log AUC in [6] and 11 log AUC in test [7].

As for “CH103 lineage intermediate ancestor IA2 (antibody)”, the log-transformed AUC came to 6.8 log AUC in test [1]; 2.6 log AUC in test [2]; 10.5 log AUC in test [3]; 9 log AUC in [4]; 11.4 log AUC in test [5]; 7 log AUC in [8]. The log-transformed AUC in test [9] is 6.3 log AUC; in test [10], 11.5 log AUC; in test [11], 7.3 log AUC; in test [12] it was 9.5 log AUC; in test [13], 9.3 log AUC; in [14], 9.2 log AUC. Also, the log-transformed AUC in test [15] stood at 13.3 log AUC; in [6], 11.5 log AUC; in [16], 9.9 log AUC; in test [17], 9 log AUC; in test [18] it was 4.6 log AUC; in [19], 7.2 log AUC. The log-transformed AUC came out at 12.5 log AUC in test [20]; 7.5 log AUC in test [21]; 13.4 log AUC in [22]; 9.7 log AUC in test [23]; 13.1 log AUC in test [24]; 14.3 log AUC in test [25]. Moreover, the log-transformed AUC in test [26] was found to be 9.9 log AUC; in test [27], 13.4 log AUC; in test [7], 10.8 log AUC.

“CH103 lineage intermediate ancestor IA7 (antibody)”: the log-transformed AUC in test [1] is 2.3 log AUC; in [2], 0.1 log AUC; in test [3] it was 8.2 log AUC; in test [4], 6.4 log AUC; in test [5], 4.7 log AUC; in [6], 0.7 log AUC. Also, the log-transformed AUC in test [7] is 9.2 log AUC.

Consider “CH103 lineage intermediate ancestor IA4 (antibody)”, for which the log-transformed AUC was determined as 2.8 log AUC in test [1]; 0.8 log AUC in test [2]; 9.1 log AUC in test [3]; 7.3 log AUC in test [4]; 7.4 log AUC in test [5]; 0.2 log AUC in test [13]. In addition, the values for the log-transformed AUC in test [6] and in [7] were 1.3 log AUC and 10.1 log AUC, respectively.

With “CH106 (CH103 lineage monoclonal antibody)”, the log-transformed AUC in test [1] turned out to be 8.1 log AUC; in test [2], 5.4 log AUC; in test [3], 10.5 log AUC; in [4] it was 9.4 log AUC; in [5], 11.9 log AUC; in [8] it was 8.2 log AUC. In addition, the log-transformed AUC in [9] stood at 7.3 log AUC; in [10], 10.9 log AUC; in test [11] it was 8.5 log AUC; in [12] it was 10.1 log AUC; in [13] it was 9.8 log AUC; in [14], 9.7 log AUC. For the same substance, the log-transformed AUC in test [15] turned out to be 13.4 log AUC; in test [6], 11 log AUC; in test [16], 8.7 log AUC; in [17], 9.5 log AUC; in test [18], 6.7 log AUC; in [19], 8.3 log AUC. The log-transformed AUC in test [20] turned out to be 12 log AUC; in test [21], 7.8 log AUC; in test [22] it was 12.6 log AUC; in [23], 9 log AUC; in test [24] it was 12.7 log AUC; in [25], 13.3 log AUC. In addition, the log-transformed AUC in test [26] was 10.9 log AUC; in [27] it was 12.3 log AUC; in test [7], 11.3 log AUC.

As for “CH104 (CH103 lineage monoclonal antibody)”, the log-transformed AUC is 8.1 log AUC in test [1]; 2.2 log AUC in test [2]; 10.5 log AUC in test [3]; 8.3 log AUC in test [4]; 11.3 log AUC in test [5]; 7 log AUC in test [8]. Moreover, the log-transformed AUC in test [9] is 7.5 log AUC; in [10], 11.3 log AUC; in [11] it was 7.8 log AUC; in test [12], 10.4 log AUC; in test [13], 9.9 log AUC; in test [14], 9.8 log AUC. Further, the log-transformed AUC in test [15] is 13.7 log AUC; in test [6], 10.8 log AUC; in test [16], 10 log AUC; in test [17] it was 9 log AUC; in test [18], 4.5 log AUC; in test [19] it was 6.9 log AUC. For the same substance, the log-transformed AUC amounted to 12.9 log AUC in test [20]; 6.1 log AUC in test [21]; 13.1 log AUC in test [22]; 8.9 log AUC in [23]; 13.2 log AUC in test [24]; 14.2 log AUC in test [25]. Besides, the log-transformed AUC in test [26] was found to be 10.6 log AUC; in test [27], 12.8 log AUC; in test [7] it was 10.4 log AUC.

Consider “CH103 lineage intermediate ancestor IA8 (antibody)”, for which the log-transformed AUC in [1] was found to be 0.5 log AUC; in test [2] it was 0.9 log AUC; in [3], 4.2 log AUC; in test [4] it was 2.4 log AUC; in test [5], 2 log AUC; in [7] it was 5.5 log AUC.

For the substance “CH103 lineage unmutated common ancestor (UCA) (antibody)”, the log-transformed AUC in [3] was 1.6 log AUC; in [4], 0.8 log AUC; in test [5], 0.3 log AUC; in test [7] it was 3.5 log AUC.
